Assays:
Test in all cases: high-throughput RNA pulldown from lysate on Ni-NTA beads; HRP: 50 mM Tris pH 8, 150 mM NaCl, 1 mM beta-mercaptoethanol, 50 ug/ml BSA, 3 ug/ml yeast RNA, 0.5% heparin; ITC and FP: Tris pH 8, 200 mM KCl, 5% glycerol; MST: 50 mM Tris pH 8, 200 mM NaCl, 1 mM DTT, BSA, heparin, 0.05% Tween 20
Conditions in all cases: tags: N-terminal His-eGFP
[1] = target: T1, GFP-9S library array, motif 4 ND N98D;D124Y (synthetic construct, N98D;D124Y)
T1 chain: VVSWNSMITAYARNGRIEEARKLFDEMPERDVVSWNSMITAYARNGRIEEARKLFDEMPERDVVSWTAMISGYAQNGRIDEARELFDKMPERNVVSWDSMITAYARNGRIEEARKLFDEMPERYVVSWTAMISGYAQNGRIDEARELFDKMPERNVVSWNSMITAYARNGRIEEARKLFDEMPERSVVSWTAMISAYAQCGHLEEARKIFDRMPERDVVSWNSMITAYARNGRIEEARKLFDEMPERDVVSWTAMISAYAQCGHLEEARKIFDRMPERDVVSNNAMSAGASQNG

[2] = target: T2, GFP-9S library array, motif 4 ND N98L;D124A (synthetic construct, N98L;D124A)
T2 chain: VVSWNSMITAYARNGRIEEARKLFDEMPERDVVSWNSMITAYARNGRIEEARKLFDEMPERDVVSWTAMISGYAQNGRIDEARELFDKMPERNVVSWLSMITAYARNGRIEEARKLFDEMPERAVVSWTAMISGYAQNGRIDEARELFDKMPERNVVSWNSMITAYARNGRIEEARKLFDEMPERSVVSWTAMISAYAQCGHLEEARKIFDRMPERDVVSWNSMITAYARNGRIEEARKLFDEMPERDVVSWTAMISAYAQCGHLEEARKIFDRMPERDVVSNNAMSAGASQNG

[3] = target: T3, GFP-9S library array, motif 4 ND N98S;D124E (synthetic construct, N98S;D124E)
T3 chain: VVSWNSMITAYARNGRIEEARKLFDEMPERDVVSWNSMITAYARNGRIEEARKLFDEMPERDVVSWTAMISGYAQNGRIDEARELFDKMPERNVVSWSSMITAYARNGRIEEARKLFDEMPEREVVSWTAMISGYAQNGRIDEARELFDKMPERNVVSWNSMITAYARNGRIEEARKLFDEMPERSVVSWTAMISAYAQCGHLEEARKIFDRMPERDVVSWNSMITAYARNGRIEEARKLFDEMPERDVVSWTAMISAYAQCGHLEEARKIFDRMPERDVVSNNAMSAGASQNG

[4] = target: T4, GFP-9S library array, motif 4 ND D124H (synthetic construct, D124H)
T4 chain: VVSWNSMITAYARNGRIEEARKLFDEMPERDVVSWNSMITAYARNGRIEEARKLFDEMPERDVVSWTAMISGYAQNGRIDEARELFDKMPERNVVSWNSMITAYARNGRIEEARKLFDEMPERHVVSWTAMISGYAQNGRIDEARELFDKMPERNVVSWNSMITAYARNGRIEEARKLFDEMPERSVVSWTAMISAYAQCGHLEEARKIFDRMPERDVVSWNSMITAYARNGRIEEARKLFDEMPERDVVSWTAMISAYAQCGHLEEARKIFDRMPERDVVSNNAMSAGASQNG

[5] = target: T5, GFP-9S library array, motif 4 ND N98D;D124T (synthetic construct, N98D;D124T)
T5 chain: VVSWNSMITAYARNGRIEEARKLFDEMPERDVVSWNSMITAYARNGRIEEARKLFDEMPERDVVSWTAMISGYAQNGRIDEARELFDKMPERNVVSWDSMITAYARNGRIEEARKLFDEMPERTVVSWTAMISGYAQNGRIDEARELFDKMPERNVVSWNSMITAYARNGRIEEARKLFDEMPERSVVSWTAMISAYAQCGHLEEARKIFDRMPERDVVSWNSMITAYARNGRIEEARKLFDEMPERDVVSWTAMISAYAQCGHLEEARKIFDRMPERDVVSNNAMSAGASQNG

Row | Binder | Kd ([1]; label: 5' Cy5) | Kd ([2]; label: 5' Cy5) | Kd ([3]; label: 5' Cy5) | Kd ([4]; label: 5' Cy5) | Kd ([5]; label: 5' Cy5) | Kd ([1]; label: 5' IRDye 800CW) | Kd ([2]; label: 5' IRDye 800CW) | Kd ([3]; label: 5' IRDye 800CW) | Kd ([4]; label: 5' IRDye 800CW) | Kd ([5]; label: 5' IRDye 800CW)
1 | AUUACACGUGA (ssRNA) [Cy5-rpoA] | 153 nM | 47.4 nM | 276 nM | 166 nM | 123 nM | – | – | – | – | –
2 | AUUAAACGUGA (ssRNA) [IR-rpoA-A] | – | – | – | – | – | 1180 nM | 90.9 nM | 70.5 nM | 285 nM | 320 nM
3 | AUUAUACGUGA (ssRNA) [IR-rpoA-U] | – | – | – | – | – | 266 nM | 43.4 nM | 201 nM | 40.7 nM | 301 nM
4 | AUUAGACGUGA (ssRNA) [Cy5-rpoA-G] | 246 nM | 71.4 nM | 122 nM | 287 nM | 106 nM | – | – | – | – | –
